This experiment deals with MBP-SpyTag. As to the kind of experiment: SDS-PAGE coupling assay, biotin-HPDP-modified Catcher, without TCEP, one hour.

B1: SpyCatcher Ala87→Cys modified with biotin-HPDP (designed binder)
chain: VTTLSGLSGEQGPSGDMTTEEDSATHIKFSKRDEDGRELAGATMELRDSSGKTISTWISDGHVKDFYLYPGKYTFVETAAPDGYEVCTPIEFTVNEDGQVTVDGEATEGDAHT
On to B1, for which the loss of activity stood at 50%.

The values above are taken from patent publication US20240368234A1.
